Publication PMC6134095 (2018)

B1: FtsN (57–319), periplasmic domain of E. coli FtsN (domain or fragment)
chain: HKKEESETLQSQKVTGNGLPPKPEERWRYIKELESRQPGVRAPTEPSAGGEVKTPEQLTPEQRQLLEQMQADMRQQPTQLVEVPWNEQTPEQRQQTLQRQRQAQQLAEQQRLAQQSRTTEQSWQQQTRTSQAAPVQAQPRQSKPASSQQPYQDLLQTPAHTTAQSKPQQAAPVARAADAPKPTAEKKDERRWMVQCGSFRGAEQAETVRAQLAFEGFDSKITTNNGWNRVVIGPVKGKENADSTLNRLKMAGHTNCIRLAAGG
B2: FtsB (22–103), periplasmic domain of E. coli FtsB (domain or fragment)
chain: GKNGIHDYTRVNDDVAAQQATNAKLKARNDQLFAEIDDLNGGQEALEERARNELSMTRPGETFYRLVPDASKRAQSAGQNNR
B3: FtsN (58–320) plus FtsB (22–103), bound together (other)
chain 1: B2 chain
chain 2: B1 chain

Key:
[1] = molecular target: T1, FtsQ (58–276), periplasmic domain of E. coli FtsQ (Escherichia coli strain K-12, UniProt P06136 58-276); experiment: SPR
[2] = molecular target: T1, FtsQ (58–276), periplasmic domain of E. …; experiment: SPR; minor phase
[3] = molecular target: T1, FtsQ (58–276), periplasmic domain of E. …; experiment: SPR; major phase
[4] = molecular target: T1, FtsQ (58–276), periplasmic domain of E. …; experiment: SPR; minor phase; remark: listed apart in the source

T1 sequence (P06136 58-276): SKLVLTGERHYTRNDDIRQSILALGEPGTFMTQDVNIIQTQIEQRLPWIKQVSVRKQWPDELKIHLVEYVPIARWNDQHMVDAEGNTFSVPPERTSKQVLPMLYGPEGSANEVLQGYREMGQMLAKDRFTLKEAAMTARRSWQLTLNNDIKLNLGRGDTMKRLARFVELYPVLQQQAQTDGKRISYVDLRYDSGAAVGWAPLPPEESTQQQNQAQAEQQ

| Binder | koff [1] [s⁻¹] | Kd [2] [µM] | koff [3] [s⁻¹] | koff [4] [s⁻¹] |
| --- | --- | --- | --- | --- |
| B1 | 0.076 | – | – | – |
| B2 | – | 11 | 0.00021 | 0.031 |
| B3 | – | 5.6 | 8.3e-05 | 0.03 |
